{
  "source": "paper PMC10397247",
  "key": {"P8A-bN": {"target": "T1, P8A-bN", "T1 chain": "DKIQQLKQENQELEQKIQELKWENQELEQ", "assay": "two-hybrid library CCNG1;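 further: natural log of median RNA to DNA barcode read ratio; higher means stronger binding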"}, "P9A-bN": {"target": "T2, P9A-bN", "T2 chain": "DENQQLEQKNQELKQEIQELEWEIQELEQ", "assay": "two-hybrid library CCNG1"}, "4H470-bH": {"target": "T3, 4H470-bH", "T3 chain": "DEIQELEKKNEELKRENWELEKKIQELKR", "assay": "two-hybrid library CCNG1"}, "P7mSN": {"target": "T4, P7mSN", "T4 chain": "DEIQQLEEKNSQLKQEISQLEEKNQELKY", "assay": "two-hybrid library CCNG1"}, "P8mSN": {"target": "T5, P8mSN", "T5 chain": "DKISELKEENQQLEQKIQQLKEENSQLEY", "assay": "two-hybrid library CCNG1"}, "P9mSN": {"target": "T6, P9mSN", "T6 chain": "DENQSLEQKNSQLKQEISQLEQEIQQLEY", "assay": "two-hybrid library CCNG1"}, "P7A-bH": {"target": "T7, P7A-bH", "T7 chain": "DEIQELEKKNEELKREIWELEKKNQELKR", "assay": "two-hybrid library CCNG1"}, "P8A-bH": {"target": "T8, P8A-bH", "T8 chain": "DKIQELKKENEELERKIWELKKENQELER", "assay": "two-hybrid library CCNG1"}, "P9A-bH": {"target": "T9, P9A-bH", "T9 chain": "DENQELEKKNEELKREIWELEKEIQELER", "assay": "two-hybrid library CCNG1"}, "4H1854-AA": {"target": "T10, 4H1854-AA", "T10 chain": "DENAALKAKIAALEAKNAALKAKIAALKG", "assay": "two-hybrid library CCmax"}, "4H189-AA": {"target": "T11, 4H189-AA", "T11 chain": "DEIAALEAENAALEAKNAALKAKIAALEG", "assay": "two-hybrid library CCmax", "conditions": "mean of both orientations"}, "4H2248-AA": {"target": "T12, 4H2248-AA", "T12 chain": "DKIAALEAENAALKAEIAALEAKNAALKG", "assay": "two-hybrid library CCmax", "conditions": "mean of both orientations"}, "4H2283-AA": {"target": "T13, 4H2283-AA", "T13 chain": "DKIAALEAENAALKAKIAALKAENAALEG", "assay": "two-hybrid library CCmax", "conditions": "mean of both orientations"}, "4H2713-AA": {"target": "T14, 4H2713-AA", "T14 chain": "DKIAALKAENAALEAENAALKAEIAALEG", "assay": "two-hybrid library CCmax", "conditions": "mean of both orientations"}, "4H2742-AA": {"target": "T15, 4H2742-AA", "T15 chain": "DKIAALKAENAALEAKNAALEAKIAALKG", "assay": "two-hybrid library CCmax", "conditions": "mean of both orientations"}, "4H2948-AA": {"target": "T16, 4H2948-AA", "T16 chain": "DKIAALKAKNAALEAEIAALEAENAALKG", "assay": "two-hybrid library CCmax", "conditions": "mean of both orientations"}, "4H2991-AA": {"target": "T17, 4H2991-AA", "T17 chain": "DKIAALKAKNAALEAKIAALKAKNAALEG", "assay": "two-hybrid library CCmax", "conditions": "mean of both orientations"}, "4H3029-AA": {"target": "T18, 4H3029-AA", "T18 chain": "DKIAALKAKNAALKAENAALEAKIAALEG", "assay": "two-hybrid library CCmax", "conditions": "mean of both orientations"}, "4H3066-AA": {"target": "T19, 4H3066-AA", "T19 chain": "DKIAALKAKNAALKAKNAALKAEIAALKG", "assay": "two-hybrid library CCmax", "conditions": "mean of both orientations"}, "4H3102-AA": {"target": "T20, 4H3102-AA", "T20 chain": "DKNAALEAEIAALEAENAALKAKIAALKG", "assay": "two-hybrid library CCmax", "conditions": "mean of both orientations"}, "4H3121-AA": {"target": "T21, 4H3121-AA", "T21 chain": "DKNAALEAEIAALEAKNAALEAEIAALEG", "assay": "two-hybrid library CCmax", "conditions": "mean of both orientations"}, "4H3417-AA": {"target": "T22, 4H3417-AA", "T22 chain": "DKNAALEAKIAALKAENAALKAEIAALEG", "assay": "two-hybrid library CCmax", "conditions": "mean of both orientations"}, "4H3446-AA": {"target": "T23, 4H3446-AA", "T23 chain": "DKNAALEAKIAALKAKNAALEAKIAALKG", "assay": "two-hybrid library CCmax", "conditions": "mean of both orientations"}, "4H3591-AA": {"target": "T24, 4H3591-AA", "T24 chain": "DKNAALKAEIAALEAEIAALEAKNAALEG", "assay": "two-hybrid library CCmax", "conditions": "mean of both orientations"}, "4H3628-AA": {"target": "T25, 4H3628-AA", "T25 chain": "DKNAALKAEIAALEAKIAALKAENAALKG", "assay": "two-hybrid library CCmax", "conditions": "mean of both orientations"}, "4H3666-AA": {"target": "T26, 4H3666-AA", "T26 chain": "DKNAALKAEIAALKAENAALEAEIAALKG", "assay": "two-hybrid library CCmax", "conditions": "mean of both orientations"}, "4H3709-AA": {"target": "T27, 4H3709-AA", "T27 chain": "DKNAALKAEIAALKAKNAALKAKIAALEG", "assay": "two-hybrid library CCmax", "conditions": "mean of both orientations"}, "4H391-AA": {"target": "T28, 4H391-AA", "T28 chain": "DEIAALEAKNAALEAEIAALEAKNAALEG", "assay": "two-hybrid library CCmax", "conditions": "mean of both orientations"}, "4H3920-AA": {"target": "T29, 4H3920-AA", "T29 chain": "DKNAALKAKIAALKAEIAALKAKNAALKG", "assay": "two-hybrid library CCmax", "conditions": "mean of both orientations"}, "4H3939-AA": {"target": "T30, 4H3939-AA", "T30 chain": "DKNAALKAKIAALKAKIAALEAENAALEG", "assay": "two-hybrid library CCmax", "conditions": "mean of both orientations"}, "4H428-AA": {"target": "T31, 4H428-AA", "T31 chain": "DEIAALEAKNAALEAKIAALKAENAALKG", "assay": "two-hybrid library CCmax", "conditions": "mean of both orientations"}, "4H478-AA": {"target": "T32, 4H478-AA", "T32 chain": "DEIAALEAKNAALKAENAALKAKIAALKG", "assay": "two-hybrid library CCmax", "conditions": "mean of both orientations"}, "4H497-AA": {"target": "T33, 4H497-AA", "T33 chain": "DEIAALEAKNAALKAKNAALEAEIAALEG", "assay": "two-hybrid library CCmax", "conditions": "mean of both orientations"}, "4H656-AA": {"target": "T34, 4H656-AA", "T34 chain": "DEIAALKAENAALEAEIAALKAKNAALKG", "assay": "two-hybrid library CCmax", "conditions": "mean of both orientations"}, "4H675-AA": {"target": "T35, 4H675-AA", "T35 chain": "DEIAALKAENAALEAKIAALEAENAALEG", "assay": "two-hybrid library CCmax", "conditions": "mean of both orientations"}, "4H971-AA": {"target": "T36, 4H971-AA", "T36 chain": "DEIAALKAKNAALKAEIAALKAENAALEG", "assay": "two-hybrid library CCmax", "conditions": "mean of both orientations"}},
  "data": [
    {"binder": "DKIQQLKQENQELEQKIQELKWENQELEQ", "note": "[P8A-bN]", "values": [
      {"measurement": "interaction score", "setting": "P8A-bN", "value": -1.84},
      {"measurement": "interaction score", "setting": "P9A-bN", "value": -1.47}
    ]},
    {"binder": "DEIQELEKKNEELKRENWELEKKIQELKR", "note": "[4H470-bH]", "values": [
      {"measurement": "interaction score", "setting": "4H470-bH", "value": 0.789}
    ]},
    {"binder": "DEIQQLEEKNSQLKQEISQLEEKNQELKY", "note": "[P7mSN]", "values": [
      {"measurement": "interaction score", "setting": "P7mSN", "value": -0.219},
      {"measurement": "interaction score", "setting": "P8mSN", "value": 0.927},
      {"measurement": "interaction score", "setting": "P9mSN", "value": -0.424}
    ]},
    {"binder": "DKNQELKKEIEELERENWELEKKIQELKR", "note": "[P6A-bH]", "values": [
      {"measurement": "interaction score", "setting": "P7A-bH", "value": 1.35},
      {"measurement": "interaction score", "setting": "P8A-bH", "value": 0.924},
      {"measurement": "interaction score", "setting": "P9A-bH", "value": 0.983}
    ]},
    {"binder": "DENAALKAKIAALEAKNAALKAKIAALKG", "note": "[4H1854-AA]", "values": [
      {"measurement": "interaction score", "setting": "4H1854-AA", "value": 0.401},
      {"measurement": "interaction score", "setting": "4H189-AA", "value": -1.76},
      {"measurement": "interaction score", "setting": "4H2248-AA", "value": 1.14},
      {"measurement": "interaction score", "setting": "4H2283-AA", "value": -0.597},
      {"measurement": "interaction score", "setting": "4H2713-AA", "value": -0.843},
      {"measurement": "interaction score", "setting": "4H2742-AA", "value": -1.53},
      {"measurement": "interaction score", "setting": "4H2948-AA", "value": -0.756},
      {"measurement": "interaction score", "setting": "4H2991-AA", "value": -1.61},
      {"measurement": "interaction score", "setting": "4H3029-AA", "value": -0.674},
      {"measurement": "interaction score", "setting": "4H3066-AA", "value": -1.5},
      {"measurement": "interaction score", "setting": "4H3102-AA", "value": 0.389},
      {"measurement": "interaction score", "setting": "4H3121-AA", "value": 1.28},
      {"measurement": "interaction score", "setting": "4H3417-AA", "value": 1.7},
      {"measurement": "interaction score", "setting": "4H3446-AA", "value": -1},
      {"measurement": "interaction score", "setting": "4H3591-AA", "value": -0.937},
      {"measurement": "interaction score", "setting": "4H3628-AA", "value": -1.22},
      {"measurement": "interaction score", "setting": "4H3666-AA", "value": 1.68},
      {"measurement": "interaction score", "setting": "4H3709-AA", "value": -0.898},
      {"measurement": "interaction score", "setting": "4H391-AA", "value": 0.189},
      {"measurement": "interaction score", "setting": "4H3920-AA", "value": -1.51},
      {"measurement": "interaction score", "setting": "4H3939-AA", "value": -1.28},
      {"measurement": "interaction score", "setting": "4H428-AA", "value": -0.746},
      {"measurement": "interaction score", "setting": "4H478-AA", "value": -1.16},
      {"measurement": "interaction score", "setting": "4H497-AA", "value": -1.88},
      {"measurement": "interaction score", "setting": "4H656-AA", "value": 0.553},
      {"measurement": "interaction score", "setting": "4H675-AA", "value": 0.675},
      {"measurement": "interaction score", "setting": "4H971-AA", "value": -2.3}
    ]}
  ]
}
